In the test the target is T1, purified, recombinant human IL-31 fused at the C-terminal with a peptide consisting of the sequence EYMPME … (human, UniProt Q6EBC2 27-164).
T1 construct: also called human IL-31-CEE; rIL31
T1 sequence: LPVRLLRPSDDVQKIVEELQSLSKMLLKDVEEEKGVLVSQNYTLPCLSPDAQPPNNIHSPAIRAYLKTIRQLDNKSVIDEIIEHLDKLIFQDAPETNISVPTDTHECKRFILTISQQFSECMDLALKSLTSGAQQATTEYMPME
The experiment in a line: capture ELISA: mAb of supernatant captured on anti-mouse IgG Fc, biotinylated IL-31-CEE. The protocol: These new supernatants were tested using the cell-based neutralization assay (serial 3-fold dilutions starting with neat supernatant and proceeding to a final 1:243 dilution) as well as a “capture” style ELISA assay similar to that used in the development of the rat anti-murine IL-31 mAbs with the following differences; 1) sheep anti-mouse IgG, Fc specific antibody (Jackson Immunoresearch) (1 ug/mL) as plate coating antibody, 2) plates blocked once with PBS-Tween+1% BSA for 1 hr, 3) a single titration of each supernatant added to wells (serial 3-fold dilutions starting with neat supernatant and proceeding to a final 1:2187 dilution), and 4) addition of biotinylated IL-31-CEE (3:1 molar ratio of biotin:protein), 200 ng/mL. This assay was felt to be more pertinent than the binding of antibody to plate bound IL-31-CEE as it assessed the ability of antibody to bind to IL-31-CEE in solution, a property essential to a good antibody for sandwich style ELISAs. It was in fact observed that a number of the master wells supernatants containing antibody that bound well to plate bound IL-31-CEE poorly recognized this molecule in solution.
To reduce the number of hybridomas going into further subcloning, two new assays were performed with exhausted supernatant from each of the selected first round clones. […]
(In an ELISA, binding on a coated surface is turned into a signal by an enzyme label.)

B1: mouse anti-human IL-31 mAb 294.144.3.5 (antibody, mouse IgG1, V domains shown)
VL: ENVLTQSPAIMSASPGERVTMTCSASSSVSYMHWYQQKSSNSPKLWIYDTTKLASGVPGRFSGSGSGNSYSLTISSMEAEDVATYFCFQGSEHPLTFGGGTTLEI
VH: QVQLQQSGPELMKPGASVKISCKATGYTFSTYWIEWIKQRPGHGLEWIGEILPGRGTTNYNAKFQGKATFTAETSSNTAYMQLSSLTSEDSAVYYCTTESKLGDDDYWQGTTLTVSS
notes: Mouse IgG1; also called ATCC PTA-6873
Take B1: the EC50 turned out to be 0.0134 µg/mL.

Broadly, the EC50 is the concentration giving half of the maximal effect.

Source of the values: US20170355763A1 (published 2017).
